{"source": "patent US20240336907A1", "about": "“NOVEL ENDO-ß-N-ACETYLGLUCOSAMINIDASE” (priority 2020, published 2024)", "key": {"(Fucα1,6)GlcNAc-mAb2": {"test_system": "(Fucα1,6)GlcNAc-mAb2", "assay": "Transglycosylation activity with SGP as donor, in combination with Endo-M N175Q", "format": "biochemical", "conditions": "donor SGP (50 eq.), Endo-M N175Q 2.5 mU, Endo-Si enzyme 10 μg, 23° C., pH 7.5", "experimental": "Transglycosylation activity was evaluated as follows. A 50 mM (sodium) phosphate buffer (pH 7.5) solution (17 μL) containing (Fucα1,6)GlcNAc-mAb2 (0.5 mg), SGP (0.485 mg (50 eq.)), Endo-M N175Q (manufactured by Tokyo Kasei Kogyo Co., Ltd.) (2.5 mU) and each of various Endo-Si mutant enzymes (10 μg), was prepared and incubated at 23° C. A sample was taken from each of the reaction solutions at 2, 4, 6, 24, and 48 hours after initiation of the reaction and analyzed for protein by a fully automated electrophoresis system as mentioned above. In the chromatogram obtained, an unreacted product and a transglycosylated molecule, mAb2-(SG)2 are confirmed as discrete peaks. The transglycosylation rates were obtained based on the peak area ratio between the unreacted product and the transglycosylated molecule in accordance with the following expression.\nSimilarly, transglycosylation rates of individual Endo-Si mutant enzymes at each time period of a reaction were calculated (Table 6)."}, "[1]": {"test_system": "trastuzumab (mAb1) N297-linked sugar chain", "assay": "Hydrolysis activity on antibody sugar chain (sugar chain hydrolysis rate, fully automated electrophoresis)", "format": "biochemical", "conditions": "0.5 hours after initiation of the reaction; 0.1 mg mAb1, 10 ng enzyme, 37° C., pH 7.5", "experimental": "The enzyme obtained in Example 2 was measured for hydrolysis activity by the following method. At this time, EndoS was used as a comparative subject.\nIn sterile water (5 mL), mAb1 (60 mg) was dissolved. The solution was replaced with 50 mM Tris-HCl buffer (pH 7.5) while concentrating the solution by Vivaspin 20 (30,000 MWCO, PES, manufactured by Sartorius).\nA reaction solution containing the mAb1 (0.1 mg) and 10 ng of the enzyme (total volume 50 μL) was prepared and incubated at 37° C. Each of the reaction solutions at 0.5, 1, and 2 hours after initiation of the reaction was sampled and analyzed for protein by a fully automated electrophoresis system as mentioned above. In the chromatogram obtained, an unreacted product and a hydrolysate are confirmed as discrete peaks. From the peak-area ratio between the unreacted product and the hydrolysate, the hydrolysis rate of a sugar chain was calculated in accordance with the following expression."}, "human IgG1-4": {"test_system": "human IgG1-4", "assay": "Substrate specificity in various antibodies (band shift in electrophoresis)", "format": "biochemical", "conditions": "10 μg substrate, 1 μg enzyme, 37° C., pH 7.5, two hours", "experimental": "(§1) The hydrolysis activities of Endo-Si, EndoS and PNGaseF on various antibodies were measured as follows. A 50 mM Tris-HCl buffer (pH 7.5) solution (50 μL) containing each of various substrates (10 μg), and 1 μg Endo-Si WT was prepared and incubated at 37° C. As the substrate, human IgG1-4, IgA, and IgE (all manufactured by Sigma Aldrich) were used. As the controls, 1 μg of EndoS WT and 500 U PNGase F PRIME (manufactured by N-zyme Scientifics) were used. Two hours after initiation of the reaction, a sample was taken from the reaction solution and analyzed for protein by a fully automated electrophoresis system mentioned above.\n(§2) When a sugar chain is hydrolyzed by addition of an enzyme, the band of a protein shifts to the lower molecular weight side compared to when the enzyme was not added."}, "mAb1 [2]": {"test_system": "mAb1", "assay": "Evaluation of reaction temperature for hydrolysis of mAb1 sugar chain", "format": "biochemical", "experimental": "The hydrolysis rates of a sugar chain with Endo-Si and EndoS at individual temperatures were measured as follows. A 50 mM Tris-HCl buffer (pH 7.5) solution (50 μL) containing 0.1 mg of mAb1 and 10 ng of Endo-Si WT or EndoS WT was prepared and incubated at each temperature of 27, 29, 31, 35, 37, 40, 43, 46, 48, and 50° C. Each of the reaction solutions at a half hour after initiation of a reaction was sampled and the hydrolysis rate of a sugar chain was calculated in accordance with the aforementioned method."}, "[3]": {"assay": "Substrate specificity in various 2-AB labeled sugar chains (HPLC)", "format": "biochemical", "conditions": "37° C., 24 hours", "experimental": "The substrate specificity of Endo-Si in various sugar chains were measured as follows. A 50 mM Tris-HCl buffer (pH 7.5) solution (10 μL) containing 5 pmol of each of various sugar chains labeled with 2-AB (manufactured by Agilent Technologies) and 20 μg of Endo-Si WT, was prepared and incubated at 37° C. for 24 hours, and thereafter treated at 95° C. for 5 minutes to terminate the reaction. The reaction solution was subjected to HPLC analysis carried out under the following conditions.\n[HPLC Analysis Conditions]\nHPLC apparatus: 1200 Infinity LC (manufactured by Agilent Technologies)\nColumn: ACQUITY UPLC Glycan Amide 130 Å, 1.7 μm, 2.1×150 mm (manufactured by Waters)\nColumn temperature: 40° C.\nDetector: Fluorescence detector RF-20Axs (manufactured by Shimadzu Corporation)\nMobile phase A: H2O+0.1% HCOOH\nMobile phase B: Acetonitrile+0.1% HCOOH\nGradient (mobile phase B %): 90% (0 minute), 40% (25 minutes)\nEnzyme activity was calculated based on the peak area ratio between a substrate and a hydrolysate, GlcNAc-2AB. […] Of them, the activity on (specificity to) G0 sugar chain is the highest."}, "mAb1 [4]": {"test_system": "mAb1", "assay": "Evaluation of reaction pH for hydrolysis of mAb1 sugar chain", "format": "biochemical", "experimental": "The hydrolysis rates of a sugar chain with Endo-Si and EndoS at individual pH values were measured as follows. A 50 mM citric acid-sodium phosphate buffer (pH 5.0 or 5.5) solution, sodium phosphate buffer (pH 6.0, 6.5 or 7.0) solution or Tris-HCl buffer (pH 7.5, 8.0, 8.5 or 9.0) solution (50 μL for each) containing 0.1 mg of mAb1, and 10 ng of Endo-Si WT or EndoS WT, was prepared and incubated at 37° C. Each of the reaction solutions at a half hour after initiation of reaction was sampled and the hydrolysis rate of a sugar chain was calculated in accordance with the aforementioned method."}, "IgE": {"test_system": "IgE", "assay": "Substrate specificity in various antibodies (band shift in electrophoresis)", "format": "biochemical, human", "conditions": "10 μg substrate, 1 μg enzyme, 37° C., pH 7.5, two hours", "experimental": "as §1, §2"}, "IgA": {"test_system": "IgA", "assay": "Substrate specificity in various antibodies (band shift in electrophoresis)", "format": "biochemical, human", "conditions": "10 μg substrate, 1 μg enzyme, 37° C., pH 7.5, two hours", "experimental": "as §1, §2"}}}
{"molecule": "Endo-Si WT: endo-β-N-acetylglucosaminidase derived from Streptococcus iniae, amino acid positions 34 to 928 in SEQ ID NO: 2 (protein, listed as Streptococcus iniae) REELKMPNGLEQSIADVEAKIDALTYLSKNSKDEFKHSMYEIPSNREHKPVSPKQALQNAKKADAQAERLAKMTIPKKEELKALEGPLYGGYFRTWQDKTSDPTETNKVNSFGELPKEVDLAFVFHDYTKDYSLFWEELATKQVPKLNKQGTRVIRTIPWRFLSGADHSDISADKEKFPNTEAGNKALAKAIVDEYVYKYNLDGLDIDIERDSVPKVNDKEDPEALARTVEVFKEIGKLIGANGADKSRLLIMDTTYTAEENPLIKETAQYLNLLLVQVYGFSGENGNYLHHKNILDETSSMEGRWQGYSKYIRPEQYMVGFSFYEEKDFNNRWKDINEEDPSDPHIGEKIQGTRAERYAKWQPKTGGLKGGLFSYAIDRDGVAQPKQKTEHPELDKIVKSEYKVSKALKKLMMTDDQYQPIDQSDFPDKALRESIIKQVGTRRGDLERFKGTLRLDNPEIKDLTGLNKLKRVAKLELINLPKITKIDKDDLPQNLKPLTDNQKSNLEIKGTYDDSKLYKDIPAFDLVISGLSGLESLDISGHQRDTLSGIDASTLPSLKAINISDNHFDLAQGTENRHILDTILATLAKNGASTASFDKQKPKGLYPESYSTAPLHLQVGQGKINVIDDLIFGTRTNQNTLINTENDFEAYKEQTIQGKPFIAPDYLYDNFKVSYKEYSASIVDSTLAETTDKTIDTAKAETYQVTVSNKDGKTVHSVKVIVGDEKPMMVNLAQDAKIIGTDNMTQSAKVFDGQKDQFLLSWNKDSSVIFELKTPGTAKHWRFFDDGKNDSVTLSVFKGDASNFETEKDKAENWVEITKDSRKNDDKVFSSPLEVDNAKYLKVTIKKEAKYIYFNELQILGYPGVVAKKTADDLRPTEADKSDDKSDKNDTEAK", "values": [{"measurement": "Transglycosylation rate", "setting": "(Fucα1,6)GlcNAc-mAb2; 2 h", "result": 1.2, "unit": "%"}, {"measurement": "Transglycosylation rate", "setting": "(Fucα1,6)GlcNAc-mAb2; 4 h", "result": 1.1, "unit": "%"}, {"measurement": "Transglycosylation rate", "setting": "(Fucα1,6)GlcNAc-mAb2; 6 h", "result": 0.0, "unit": "%"}, {"measurement": "Transglycosylation rate", "setting": "(Fucα1,6)GlcNAc-mAb2; 24 h", "result": 0.0, "unit": "%"}, {"measurement": "Transglycosylation rate", "setting": "(Fucα1,6)GlcNAc-mAb2; 48 h", "result": 0.0, "unit": "%"}, {"measurement": "hydrolysis rate of a sugar chain", "setting": "[1]", "result": 57.4, "unit": "%"}, {"measurement": "hydrolysis activity on the 4 subclasses of IgG", "setting": "human IgG1-4", "result": "exhibited hydrolysis activity"}, {"measurement": "hydrolysis activity compared with EndoS", "setting": "mAb1 [2]; at individual temperatures 27 to 50° C.", "result": "higher hydrolysis activity than EndoS"}, {"measurement": "optimum reaction temperature for hydrolysis: particularly around", "setting": "mAb1 [2]; mAb1, pH 7.5, half hour reaction, particularly around (35° C. to 39° C.)", "result": "around 37 °C"}, {"measurement": "Relative activity", "setting": "[3]; substrate 2-AB G0 (agafacto biantennary), reference regarded as 100%", "result": 100, "unit": "%"}, {"measurement": "Relative activity", "setting": "[3]; substrate 2-AB G2 (asfato biantennary), activity against G0 sugar chain regarded as 100%", "result": 73.2, "unit": "%"}, {"measurement": "Relative activity", "setting": "[3]; substrate 2-AB G2F (core-fucosylated biantennary), activity against G0 sugar chain regarded as 100%", "result": 50.1, "unit": "%"}, {"measurement": "Relative activity", "setting": "[3]; substrate 2-AB G2S2 (a2,6) (sialyl biantennary), activity against G0 sugar chain regarded as 100%", "result": 17.1, "unit": "%"}, {"measurement": "Relative activity", "setting": "[3]; substrate 2-AB G3 (triantennary), activity against G0 sugar chain regarded as 100%", "result": "Not detected"}, {"measurement": "Relative activity", "setting": "[3]; substrate 2-AB Man3, activity against G0 sugar chain regarded as 100%", "result": 7.2, "unit": "%"}, {"measurement": "Relative activity", "setting": "[3]; substrate 2-AB Man 5, activity against G0 sugar chain regarded as 100%", "result": 1.9, "unit": "%"}, {"measurement": "Relative activity", "setting": "[3]; substrate 2-AB Man6, activity against G0 sugar chain regarded as 100%", "result": 6.6, "unit": "%"}, {"measurement": "Relative activity", "setting": "[3]; substrate 2-AB Man8, activity against G0 sugar chain regarded as 100%", "result": 5.2, "unit": "%"}, {"measurement": "Relative activity", "setting": "[3]; substrate 2-AB Man9, activity against G0 sugar chain regarded as 100%", "result": 3.3, "unit": "%"}, {"measurement": "hydrolysis activity compared with EndoS", "setting": "mAb1 [4]; at around pH 6.7 or more", "result": "higher than that of EndoS"}, {"measurement": "optimum pH for hydrolysis: particularly around", "setting": "mAb1 [4]; mAb1, 37° C., half hour reaction, particularly around (pH 7.2 to 8.0)", "result": "~7.5", "unit": "pH"}, {"measurement": "hydrolysis activity on IgE", "setting": "IgE", "result": "no hydrolysis activity"}, {"measurement": "hydrolysis activity on IgA", "setting": "IgA", "result": "no hydrolysis activity"}]}
